# Laboratory results: patent US20120201821A1 (published 2012)
# T1: human IL-17RE (human, UniProt Q8NFR9 24-667)
# T1 construct: Retrovirally expressed on 293 cells or HDFn fibroblasts from human IL17RE cDNA; A possible Flag tag on the construct is not described; also called hIL-17RE
# T1 sequence: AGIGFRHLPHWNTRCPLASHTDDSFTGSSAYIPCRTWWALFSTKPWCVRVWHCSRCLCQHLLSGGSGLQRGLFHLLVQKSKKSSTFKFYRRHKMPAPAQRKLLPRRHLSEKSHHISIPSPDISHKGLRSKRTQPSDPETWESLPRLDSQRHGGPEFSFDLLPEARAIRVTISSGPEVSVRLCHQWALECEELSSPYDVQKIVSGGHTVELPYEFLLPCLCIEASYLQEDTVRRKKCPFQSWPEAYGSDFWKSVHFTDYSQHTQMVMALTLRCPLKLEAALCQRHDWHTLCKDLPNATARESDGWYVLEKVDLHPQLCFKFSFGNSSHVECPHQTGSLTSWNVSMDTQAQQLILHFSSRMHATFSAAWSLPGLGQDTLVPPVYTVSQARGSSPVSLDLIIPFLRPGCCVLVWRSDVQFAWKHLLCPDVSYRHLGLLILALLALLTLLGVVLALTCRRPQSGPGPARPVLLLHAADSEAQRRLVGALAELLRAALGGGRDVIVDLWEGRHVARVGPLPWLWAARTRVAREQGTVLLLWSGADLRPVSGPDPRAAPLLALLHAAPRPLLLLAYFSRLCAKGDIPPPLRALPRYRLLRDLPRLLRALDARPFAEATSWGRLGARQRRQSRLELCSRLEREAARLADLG
# T2: human IL-17RA (human, UniProt Q96F46 33-866)
# T2 construct: Retrovirally expressed on 293 cells from human IL17RA cDNA (pMSCV-IRES-GFP); Surface expression was confirmed with an anti-Flag antibody, so the construct may carry a Flag tag; not described; also called hIL-17RA
# T2 sequence: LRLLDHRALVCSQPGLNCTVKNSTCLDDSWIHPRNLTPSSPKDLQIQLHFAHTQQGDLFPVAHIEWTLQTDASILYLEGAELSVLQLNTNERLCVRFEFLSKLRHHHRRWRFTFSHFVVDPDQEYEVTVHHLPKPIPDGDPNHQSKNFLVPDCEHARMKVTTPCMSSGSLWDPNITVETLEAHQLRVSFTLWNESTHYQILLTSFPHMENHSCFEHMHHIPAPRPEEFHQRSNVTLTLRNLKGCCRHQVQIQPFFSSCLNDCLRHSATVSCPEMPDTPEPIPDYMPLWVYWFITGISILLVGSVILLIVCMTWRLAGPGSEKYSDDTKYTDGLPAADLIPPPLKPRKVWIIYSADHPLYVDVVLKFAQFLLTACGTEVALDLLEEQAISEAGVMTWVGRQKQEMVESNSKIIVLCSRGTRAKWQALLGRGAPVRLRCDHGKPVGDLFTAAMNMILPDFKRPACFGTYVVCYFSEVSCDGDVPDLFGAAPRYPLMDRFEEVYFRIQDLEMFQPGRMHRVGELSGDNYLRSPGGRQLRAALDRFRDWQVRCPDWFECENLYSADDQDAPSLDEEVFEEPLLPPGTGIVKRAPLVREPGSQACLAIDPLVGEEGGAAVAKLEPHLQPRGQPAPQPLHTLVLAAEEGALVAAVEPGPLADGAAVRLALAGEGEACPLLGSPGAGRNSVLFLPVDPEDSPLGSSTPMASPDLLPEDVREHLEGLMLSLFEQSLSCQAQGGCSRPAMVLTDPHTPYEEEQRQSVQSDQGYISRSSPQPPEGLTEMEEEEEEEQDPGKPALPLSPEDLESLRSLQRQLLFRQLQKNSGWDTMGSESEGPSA
# T3: human IL-17RC (human, UniProt Q8NAC3 21-791)
# T3 construct: whole, on cells
# T3 sequence (looked up): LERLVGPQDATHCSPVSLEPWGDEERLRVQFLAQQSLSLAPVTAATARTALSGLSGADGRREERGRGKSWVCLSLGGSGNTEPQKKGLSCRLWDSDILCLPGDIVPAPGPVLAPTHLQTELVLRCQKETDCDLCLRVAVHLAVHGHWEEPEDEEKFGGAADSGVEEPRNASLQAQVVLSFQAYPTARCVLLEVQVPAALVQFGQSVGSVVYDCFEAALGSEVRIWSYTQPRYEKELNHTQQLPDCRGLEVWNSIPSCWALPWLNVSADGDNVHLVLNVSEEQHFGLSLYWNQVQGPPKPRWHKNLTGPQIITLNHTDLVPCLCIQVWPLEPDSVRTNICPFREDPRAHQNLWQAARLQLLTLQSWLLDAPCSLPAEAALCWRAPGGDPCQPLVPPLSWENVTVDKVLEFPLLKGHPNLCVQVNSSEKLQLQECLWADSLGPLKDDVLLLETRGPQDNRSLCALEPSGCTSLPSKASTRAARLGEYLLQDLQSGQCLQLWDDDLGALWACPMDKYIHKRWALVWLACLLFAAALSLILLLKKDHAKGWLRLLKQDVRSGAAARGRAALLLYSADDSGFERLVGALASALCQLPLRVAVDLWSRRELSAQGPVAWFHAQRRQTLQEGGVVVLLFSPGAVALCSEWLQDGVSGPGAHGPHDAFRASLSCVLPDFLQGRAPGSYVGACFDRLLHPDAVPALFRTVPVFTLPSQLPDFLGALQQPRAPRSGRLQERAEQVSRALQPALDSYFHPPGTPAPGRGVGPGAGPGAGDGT
# T4: human IL-17RD (human, UniProt Q8NFM7 17-739)
# T4 construct: whole, on cells
# T4 sequence (looked up): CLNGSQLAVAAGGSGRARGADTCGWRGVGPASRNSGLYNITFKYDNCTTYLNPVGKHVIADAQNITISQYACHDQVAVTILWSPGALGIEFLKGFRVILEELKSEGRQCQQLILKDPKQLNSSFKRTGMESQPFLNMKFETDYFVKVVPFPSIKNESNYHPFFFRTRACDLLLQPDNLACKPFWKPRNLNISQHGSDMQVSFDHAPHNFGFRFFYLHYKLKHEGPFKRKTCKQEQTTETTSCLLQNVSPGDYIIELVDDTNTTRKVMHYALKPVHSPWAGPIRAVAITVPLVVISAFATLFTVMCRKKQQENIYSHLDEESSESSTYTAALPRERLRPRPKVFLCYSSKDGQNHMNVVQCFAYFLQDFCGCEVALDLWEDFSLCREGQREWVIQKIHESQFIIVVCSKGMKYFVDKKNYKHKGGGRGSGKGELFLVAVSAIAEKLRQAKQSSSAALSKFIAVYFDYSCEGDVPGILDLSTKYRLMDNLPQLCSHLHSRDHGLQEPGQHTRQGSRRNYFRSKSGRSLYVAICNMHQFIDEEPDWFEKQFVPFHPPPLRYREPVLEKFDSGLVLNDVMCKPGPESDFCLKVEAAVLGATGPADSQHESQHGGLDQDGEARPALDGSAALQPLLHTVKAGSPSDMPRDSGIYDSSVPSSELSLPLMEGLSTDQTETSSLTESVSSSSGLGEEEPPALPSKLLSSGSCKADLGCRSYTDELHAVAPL
# T5: human IL-17RB (human, UniProt Q9NRM6 18-502)
# T5 construct: whole, on cells
# T5 sequence (looked up): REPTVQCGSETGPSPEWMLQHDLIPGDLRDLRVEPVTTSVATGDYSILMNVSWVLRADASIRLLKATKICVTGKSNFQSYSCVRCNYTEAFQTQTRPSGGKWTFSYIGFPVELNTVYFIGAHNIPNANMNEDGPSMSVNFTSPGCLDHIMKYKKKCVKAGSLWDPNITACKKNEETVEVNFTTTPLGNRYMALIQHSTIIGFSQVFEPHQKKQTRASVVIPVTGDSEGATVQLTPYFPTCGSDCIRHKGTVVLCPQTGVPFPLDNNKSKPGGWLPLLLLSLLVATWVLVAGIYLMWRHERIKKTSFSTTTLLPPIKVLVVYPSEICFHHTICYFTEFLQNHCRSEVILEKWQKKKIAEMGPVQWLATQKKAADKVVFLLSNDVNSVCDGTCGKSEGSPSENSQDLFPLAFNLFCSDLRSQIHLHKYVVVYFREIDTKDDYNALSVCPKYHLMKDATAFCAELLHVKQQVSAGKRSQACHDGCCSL
# B1: IL-17B (ligand, UniProt Q9UHF5 21-180, looked up)
# chain: QPRSPKSKRKGQGRPGPLAPGPHQVPLDLVSRMKPYARMEEYERNIEEMVAQLRNSSELAQRKCEVNLQLWMSNKRSLSPWGYSINHDPSRIPVDLPEARCLCLGCVNPFTMQEDRSMVSVPVFSQVPVRRRLCPPPPRTGPCRQRAVMETIAVGCTCIF
# B2: IL-17E (ligand, UniProt Q9H293 33-177, looked up)
# chain: YSHWPSCCPSKGQDTSEELLRWSTVPVPPLEPARPNRHPESCRASEDGPLNSRAISPWRYELDRDLNRLPQDLYHARCLCPHCVSLQTGSHMDPRGNSELLYHNQTVFYRRPCHGEKGTHKGYCLERRLYRVSLACVCVRPRVMG
# notes: also called IL-25
# B3: IL-17F (ligand, UniProt Q96PD4 31-163, looked up)
# chain: RKIPKVGHTFFQKPESCPPVPGGSMKLDIGIINENQRVSMSRNIESRSTSPWNYTVTWDPNRYPSEVVQAQCRNLGCINAQGKEDISMNSVPIQQETLVVRRKHQGCSVSFQLEKVLVTVGCTCVTPVIHHVQ
# B4: Flag-tagged mature human IL-17C (His-19 to Val-197) with Gly-77 and Arg-78 substituted to Arg and Thr (ligand)
# chain: HHDPSLRGHPHSHGTPHCYSAEELPLGQAPPHLLARGAKWGQALPVALVSSLEAASHRRTHERPSATTQCPVLRPEEVLEADTHQRSISPWRYRVDTDEDRYPQKLAFAECLCRGCIDARTGRETAALNSVRLLQSLLVLRRRPCSRDGSGLPTPGAFAFHTEFIHVPVGCTCVLPRSV
# notes: Made in CHO cells as an N-terminal Flag fusion; For the radioligand assay the protein was iodinated (Iodogen); also called hIL-17C; FLAG-tagged hIL-17C; not shown: N-terminal Flag tag
# Experiments:
# human IL-17RE [1] = biological target: T1, human IL-17RE; experiment: binding screen on IL-17RE expressing 293 cells
# human IL-17RA = biological target: T2, human IL-17RA; experiment: radioligand competition binding: 125I-hIL-17C displaced by unlabeled hIL-17C on 293 cells expressing hIL-17RA
# Protocol: (§1) 293 cells expressing the IL-17 receptors were incubated for 2 hours at room temperature with a fixed concentration of iodinated hIL-17C combined with increasing concentrations of unlabeled hIL-17C and including a zero-added, buffer only sample. After the 2-hour incubation, the competition reactions were transferred to a Millipore Multiscreen filter plate and washed 4 times with binding buffer to separate the free from bound iodinated hIL-17C. The filters were counted on a Wallac Wizard 1470 gamma counter and binding data was evaluated using NewLigand software (Genentech), which uses the fitting algorithm of Munson and Rodbard to determine the binding affinity of IL-17C 58.
# human IL-17RE [2] = biological target: T1, human IL-17RE; experiment: radioligand competition binding: 125I-hIL-17C displaced by unlabeled hIL-17C on 293 cells expressing hIL-17RE
# Protocol: as §1
# human IL-17RC = biological target: T3, human IL-17RC; experiment: flow cytometry, Flag-tagged hIL-17C on 293 cells expressing the receptor, anti-Flag detection
# human IL-17RD = biological target: T4, human IL-17RD; experiment: as above
# human IL-17RB = biological target: T5, human IL-17RB; experiment: as above
binder,measurement,setting,value
B1,binding result,human IL-17RE [1],no binding
B2,binding result,human IL-17RE [1],no binding
B3,binding result,human IL-17RE [1],no binding
B4,Kd,human IL-17RA,1.4 µM
same,Kd,human IL-17RE [2],0.00035 µM
same,binding result,human IL-17RC,no binding
same,binding result,human IL-17RD,no binding
same,binding result,human IL-17RB,no binding
